Measurements as given in patent US20220267469A1 (LIPUM, published 2022).

T1: Biotinylated human BSSL (human, UniProt P19835 21-753, Biotinylated on glycosacarides, 30-40 biotin/BSSL)
T1 construct: hBSSL biotinylated in house; also called b-hBSSL; human BSSL-biotin
T1 sequence: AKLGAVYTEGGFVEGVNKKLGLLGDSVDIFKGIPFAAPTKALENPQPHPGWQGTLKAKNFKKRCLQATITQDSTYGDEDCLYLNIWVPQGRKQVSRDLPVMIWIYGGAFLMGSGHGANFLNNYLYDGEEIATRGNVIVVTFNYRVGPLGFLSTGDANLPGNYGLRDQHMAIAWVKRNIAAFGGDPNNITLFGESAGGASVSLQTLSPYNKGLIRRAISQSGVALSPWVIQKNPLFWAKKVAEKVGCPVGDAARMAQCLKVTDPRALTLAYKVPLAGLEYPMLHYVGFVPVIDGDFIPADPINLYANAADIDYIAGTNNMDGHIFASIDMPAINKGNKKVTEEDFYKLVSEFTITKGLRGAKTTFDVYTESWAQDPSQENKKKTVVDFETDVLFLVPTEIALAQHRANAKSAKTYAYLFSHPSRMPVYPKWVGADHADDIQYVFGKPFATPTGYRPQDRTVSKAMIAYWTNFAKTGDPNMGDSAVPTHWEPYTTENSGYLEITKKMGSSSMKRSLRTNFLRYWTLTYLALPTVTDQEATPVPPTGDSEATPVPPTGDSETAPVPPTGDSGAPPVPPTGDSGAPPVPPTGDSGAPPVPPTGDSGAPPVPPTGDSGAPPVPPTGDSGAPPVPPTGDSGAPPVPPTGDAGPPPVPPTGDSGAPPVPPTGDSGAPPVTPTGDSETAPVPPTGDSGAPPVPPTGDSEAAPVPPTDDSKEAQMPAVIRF

T2: Mouse BSSL, recombinant (mouse, UniProt Q64285 21-599)
T2 construct: Bought (R&D Systems, Cat. no 5658-CE); also called mBSSL; murine BSSL
T2 sequence: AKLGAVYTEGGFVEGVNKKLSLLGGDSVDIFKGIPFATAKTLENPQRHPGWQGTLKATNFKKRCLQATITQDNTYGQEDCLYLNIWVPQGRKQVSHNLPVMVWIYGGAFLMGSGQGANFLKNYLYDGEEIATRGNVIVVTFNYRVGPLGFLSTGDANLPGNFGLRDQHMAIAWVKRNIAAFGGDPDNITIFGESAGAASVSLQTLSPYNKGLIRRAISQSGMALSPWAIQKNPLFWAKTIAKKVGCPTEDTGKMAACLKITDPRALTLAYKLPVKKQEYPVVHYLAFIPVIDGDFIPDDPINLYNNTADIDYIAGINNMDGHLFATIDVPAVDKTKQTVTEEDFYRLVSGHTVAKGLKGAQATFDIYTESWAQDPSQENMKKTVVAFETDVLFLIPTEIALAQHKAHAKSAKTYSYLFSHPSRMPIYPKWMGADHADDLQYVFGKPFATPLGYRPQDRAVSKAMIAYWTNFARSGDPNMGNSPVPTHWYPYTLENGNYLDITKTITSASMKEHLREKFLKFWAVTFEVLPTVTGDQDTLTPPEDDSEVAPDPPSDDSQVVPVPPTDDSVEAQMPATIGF

T3: Human BSSL (bile salt-stimulated lipase), native (human, UniProt P19835 21-753)
T3 construct: Native full-length protein purified from human milk (Astra Hässle AB); also called hBSSL; non-biotinylated human BSSL
T3 sequence: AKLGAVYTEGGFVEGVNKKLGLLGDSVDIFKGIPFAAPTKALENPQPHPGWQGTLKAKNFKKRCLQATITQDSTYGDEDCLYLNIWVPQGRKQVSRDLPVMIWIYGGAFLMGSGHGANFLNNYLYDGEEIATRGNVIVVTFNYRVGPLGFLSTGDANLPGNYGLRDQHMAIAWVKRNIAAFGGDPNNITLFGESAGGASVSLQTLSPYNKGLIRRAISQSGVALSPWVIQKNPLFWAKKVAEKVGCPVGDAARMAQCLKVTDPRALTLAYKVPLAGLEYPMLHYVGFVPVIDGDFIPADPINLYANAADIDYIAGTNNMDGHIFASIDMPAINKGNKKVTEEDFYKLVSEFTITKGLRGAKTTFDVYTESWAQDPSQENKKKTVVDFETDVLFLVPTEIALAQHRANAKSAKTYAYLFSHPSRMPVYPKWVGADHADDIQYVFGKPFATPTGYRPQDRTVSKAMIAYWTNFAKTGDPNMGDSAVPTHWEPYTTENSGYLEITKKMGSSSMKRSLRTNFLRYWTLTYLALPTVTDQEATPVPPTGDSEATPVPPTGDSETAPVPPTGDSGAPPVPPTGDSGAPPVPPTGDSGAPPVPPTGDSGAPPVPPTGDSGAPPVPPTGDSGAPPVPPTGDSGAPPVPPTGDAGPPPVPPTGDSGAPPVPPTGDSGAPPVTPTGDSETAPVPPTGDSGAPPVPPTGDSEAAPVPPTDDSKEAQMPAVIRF


Assays:
[1] = target: T1, Biotinylated human BSSL; assay: flow cytometry displacement assay; 1.5 ug antibody, 1 ug b-hBSSL
Procedure: (§1) The 28 BSSL-specific hIgG4 antibodies and the five reference antibodies at different concentrations (ranging from 0.5 μg to 3.0 μg per reaction; see Table 10) were added to b-hBSSL (1 μg per reaction, see Table 2) in round-bottom polystyrene tubes, lx PBS (pH 7.4) was added to a final volume of 20 μl and the antibody/b-hBSSL mixtures were incubated for 30 min. at +4° C. to facilitate binding of antibodies to BSSL. Buffy coat (50 μl) was then added to each antibody/b-hBSSL mixture and incubation continued for another 30 min at +4° C. Thereafter, 2 ml of FACS lysing solution (BD Biosciences) was added and the cells were incubated for 10 min at room temperature in order to lyse erythrocytes and fix the white blood cells. The cells were then centrifuged for 5 min. at 200×g, the resulting pellets were washed by adding 2 ml of FACS buffer (1×PBS supplemented with 1% FCS and 0.1% NaN3) and centrifuged again. Finally, the supernatants were discarded and the cells were resuspended in the last drop of liquid, approximately 50 μl.
(§2) 5 μl of BV421-labelled anti-human CD14 (BD Biosciences) and 5 μl of BB515-labelled streptavidin (BD Biosciences) was added to each tube and incubated for 30 min, at +4° C., protected from light. Thereafter, cells were washed twice with FACS buffer, resuspended in 500 μl FACS buffer, and run on BD LSRII flow cytometer (BD Biosciences). Finally, data were analyzed using FlowJo software (BD Biosciences).

[2] = target: T2, Mouse BSSL, recombinant; assay: SPR steady state, hIgG4 S228P captured by anti-Fab
Procedure: (§3) Kinetic parameters of the hIgG4 S228P clones were determined by SPR using BIACORE® T200 (GE Healthcare). Single cycle kinetics was used to measure the affinity of the purified hIgG4 molecules to human and mouse BSSL. An anti-Fab antibody (GE Healthcare, #28958325) was immobilized on a CM5 S sensor chip by primary amine coupling using NHS-EDC chemistry. hIgG4 was captured by the anti-Fab antibody, and subsequently, five different concentrations of hBSSL (1:5 dilutions starting from 50 nM) or mBSSL (1:5 dilutions starting from 500 nM) were injected over the surface. The sensor chip surface was regenerated with 10 mM glycine-HCl pH 2.1. For binding to human BSSL, single cycle kinetic data was fitted to a 1:1 binding model and kinetic parameters were retrieved using software BlAevaluation. For mouse BSSL, a steady state analysis was performed by plotting the response level at equilibrium against each concentration, and KD values were retrieved by the BlAevalution software.

[3] = target: T1, Biotinylated human BSSL; assay: flow cytometry displacement assay; 3.0 ug antibody, 1 ug b-hBSSL
Procedure: as §1, §2

[4] = target: T3, Human BSSL (bile salt-stimulated …); assay: SPR single cycle kinetics, hIgG4 S228P captured by anti-Fab
Procedure: as §3

Row | Binder | percentage reduction of b-hBSSL binding to CD14+ monocytes [1] [%] | Kd [2] [nM] | percentage reduction of b-hBSSL binding to CD14+ monocytes [3] [%] | Kd [4] [nM]
1 | S-SL048-10 hIgG4 S228P (antibody, V domains shown, Tested as human IgG4 S228P) VH: QVQLVQSGAEVKKPGASVKVSCKASGYTFTSYNMHWVRQAPGQGLEWIGVINPSDGYTSYAQKFQGRVTMTRDTSTSTVYMELSSLRSEDTAVYYCARDYYGSSPLGYWGQGTLVTVSS VL: DIQMTQSPSSLSASVGDRVTITCRASPSISYLNWYQQKPGKAPKLLIYATSRLPSGVPSRFSGSGSGTDFTLTISSLQPEDFATYYCQQRSSSPTFGQGTKLEIK | 34 | 57 | 42 | 2.2
2 | S-SL048-45 hIgG4 S228P (antibody, V domains shown, Tested as human IgG4 S228P) VH: QVQLVQSGAEVKKPGASVKVSCKASGYTFTSYNMHWVRQAPGQGLEWMGVINPSDGATSYTQKFQGRVTMTRDTSTSTVYMELSSLRSEDTAVYYCARDYYGSSPLGYWGQGTLVTVSS VL: DIQMTQSPSSLSASVGDRVTITCRASQSISYLHWYQQKPGKAPKLLIYAASRLASGVPSRFSGSGSGTDFTLTISSLQPEDFATYYCHQRSSTPTFGQGTKLEIK |  | 82 |  | 9.6
3 | S-SL048-104 hIgG4 S228P (antibody, V domains shown, Tested as human IgG4 S228P) VH: QVQLVQSGAEVKKPGASVKVSCKASGYTFTSYNMHWVRQAPGQGLEWMGVINPGDGATSYDQKFKGRVTMTRDTSTSTVYMELSSLRSEDTAVYYCARDYYGSSPLGYWGQGTLVTVSS VL: DIQMTQSPSSLSASVGDRVTITCSASSSISYLHWYQQKPGKAPKLLIYAASRLASGVPSRFSGSGSGTDFTLTISSLQPEDFATYYCHQRSSTPTFGQGTKLEIK | 2 | 111 | 44 | 3.3
4 | S-SL048-43 hIgG4 S228P (antibody, V domains shown, Tested as human IgG4 S228P) VH: QVQLVQSGAEVKKPGASVKVSCKASGYTFTSYNMHWVRQAPGQGLEWMGVINPGDGATSYTQKFQGRVTMTRDTSTSTVYMELSSLRSEDTAVYYCARDYYGSSPLGYWGQGTLVTVSS VL: DIQMTQSPSSLSASVGDRVTITCRASPSISYMNWYQQKPGKAPKLLIYAASSLPSGVPSRFSGSGSGTDFTLTISSLQPEDFATYYCQQRSSSPTFGQGTKLEIK | 37 | 137 | 55 | 1.2
5 | S-SL048-81 hIgG4 S228P (antibody, V domains shown, Tested as human IgG4 S228P) VH: QVQLVQSGAEVKKPGASVKVSCKASGYTFTSYNMHWVRQAPGQGLEWIGVINPGDGATSYAQKFQGRVTMTRDTSTSTVYMELSSLRSEDTAVYYCARDYYGSSPLGYWGQGTLVTVSS VL: DIQMTQSPSSLSASVGDRVTITCRASSSISYMHWYQQKPGKAPKLLIYAASSLQSGVPSRFSGSGSGTDFTLTISSLQPEDFATYYCHQRSSSPTFGQGTKLEIK | 31 | 60 | 62 | 4.4
6 | S-SL048-112 hIgG4 S228P (antibody, V domains shown, Tested as human IgG4 S228P) VH: QVQLVQSGAEVKKPGASVKVSCKASGYTFTSYNMHWVRQAPGQGLEWIGIIYPGDGATSYNQKFKGRVTMTRDTSTSTVYMELSSLRSEDTAVYYCARDYYGSSPLGYWGQGTLVTVSS VL: DIQMTQSPSSLSASVGDRVTITCRASSSISYMHWYQQKPGKAPKLLIYATSRLASGVPSRFSGSGSGTDFTLTISSLQPEDFATYYCHQRSSTPTFGQGTKLEIK | 28 |  | 54 | 5
7 | S-SL048-115 hIgG4 S228P (antibody, V domains shown, Tested as human IgG4 S228P) VH: QVQLVQSGAEVKKPGASVKVSCKASGYTFTSYNMHWVRQAPGQGLEWMGVINPSDGATSYAQKFKGRVTMTRDTSTSTVYMELSSLRSEDTAVYYCARDYYGSSPLGYWGQGTLVTVSS VL: DIQMTQSPSSLSASVGDRVTITCRASQSISYMHWYQQKPGKAPKLLIYAASKLPSGVPSRFSGSGSGTDFTLTISSLQPEDFATYYCHQRSSSPTFGQGTKLEIK |  | 186 |  | 6
8 | S-SL048-12 hIgG4 S228P (antibody, V domains shown, Tested as human IgG4 S228P) VH: QVQLVQSGAEVKKPGASVKVSCKASGYTFTSYNMHWVRQAPGQGLEWMGVINPSDGATSYTQKFQGRVTMTRDTSTSTVYMELSSLRSEDTAVYYCARDYYGSSPLGYWGQGTLVTVSS VL: DIQMTQSPSSLSASVGDRVTITCSASSSISYMHWYQQKPGKAPKLLIYAASRLASGVPSRFSGSGSGTDFTLTISSLQPEDFATYYCHQRSSTSTFGQGTKLEIK |  | 57 |  | 6.4
9 | S-SL048-17 hIgG4 S228P (antibody, V domains shown, Tested as human IgG4 S228P) VH: QVQLVQSGAEVKKPGASVKVSCKASGYTFTSYNMHWVRQAPGQGLEWMGVINPGDGYTSYTQKFKGRVTMTRDTSTSTVYMELSSLRSEDTAVYYCARDYYGSSPLGYWGQGTLVTVSS VL: DIQMTQSPSSLSASVGDRVTITCRASQSISYLNWYQQKPGKAPKLLIYAASKLPSGVPSRFSGSGSGTDFTLTISSLQPEDFATYYCQQRSSSPTFGQGTKLEIK | 16 | 68 | 36 | 4.3
10 | S-SL048-18 hIgG4 S228P (antibody, V domains shown, Tested as human IgG4 S228P) VH: QVQLVQSGAEVKKPGASVKVSCKASGYTFTSYNMHWVRQAPGQGLEWMGVINPSDGATSYTQKFKGRVTMTRDTSTSTVYMELSSLRSEDTAVYYCARDYYGSSPLGYWGQGTLVTVSS VL: DIQMTQSPSSLSASVGDRVTITCRASSSISYLNWYQQKPGKAPKLLIYATSRLQSGVPSRFSGSGSGTDFTLTISSLQPEDFATYYCHQRSSTPTFGQGTKLEIK | 58 | 68 | 61 | 2.3
11 | S-SL048-79 hIgG4 S228P (antibody, V domains shown, Tested as human IgG4 S228P) VH: QVQLVQSGAEVKKPGASVKVSCKASGYTFTSYNMHWVRQAPGQGLEWMGVINPSDGATSYAQKFQGRVTMTRDTSTSTVYMELSSLRSEDTAVYYCARDYYGSSPLGYWGQGTLVTVSS VL: DIQMTQSPSSLSASVGDRVTITCSASQSISYLNWYQQKPGKAPKLLIYAASRLPSGVPSRFSGSGSGTDFTLTISSLQPEDFATYYCHQRSSYPTFGQGTKLEIK | 20 | 48 | 52 | 5
